# Test results as given in publication PMC8054479 (Nature, 2020).
# B1: C9orf72 (natural protein)
# chain: MSTLCPPPSPAVAKTEIALSGKSPLLAATFAYWDNILGPRVRHIWAPKTEQVLLSDGEITFLANHTLNGEILRNAESGAIDVKFFVLSEKGVIIVSLIFDGNWNGDRSTYGLSIILPQTELSFYLPLHRVCVDRLTHIIRKGRIWMHKERQENVQKIILEGTERMEDQGQSIIPMLTGEVIPVMELLSSMKSHSVPEEIDIADTVLNDDDIGDSCHEGFLLNAISSHLQTCGCSVVVGSSAEKVNKIVRTLCLFLTPAERKCSRLCEAESSFKYESGLFVQGLLKDSTGSFVLPFRQVMYAPYPTTHIDVDVNTVKQMPPCHEHIYNQRRYMRSELTAFWRATSEEDMAQDTIIYTDESFTPDLNIFQDVLHRDTLVKAFLDQVFQLKPGLSLRSTFLAQFLLVLHRKALTLIKYIEDDTQKGKKPFKSLRNLKIDLDLTAEGDLNIIMALAEKIKPGLHSFIFGRPFYTSVQERDVLMTF
# B2: WDR41 (WD repeat protein 41) (natural protein)
# chain: MLRWLIGGGREPQGLAEKSPLQTIGEEQTQNPYTELLVLKAHHDIVRFLVQLDDYRFASAGDDGIVVVWNAQTGEKLLELNGHTQKITAIITFPSLESCEEKNQLILTASADRTVIVWDGDTTRQVQRISCFQSTVKCLTVLQRLDVWLSGGNDLCVWNRKLDLLCKTSHLSDTGISALVEIPKNCVVAAVGKELIIFRLVAPTEGSLEWDILEVKRLLDHQDNILSLINVNDLSFVTGSHVGELIIWDALDWTMQAYERNFWDPSPQLDTQQEIKLCQKSNDISIHHFTCDEENVFAAVGRGLYVYSLQMKRVIACQKTAHDSNVLHVARLPNRQLISCSEDGSVRIWELREKQQLAAEPVPTGFFNMWGFGRVSKQASQPVKKQQENATSCSLELIGDLIGHSSSVEMFLYFEDHGLVTCSADHLIILWKNGERESGLRSLRLFQKLEENGDLYLAV
# Molecular target: T1, SMCR8 (Smith-Magenis syndrome chromosome region, candidate 8) (human, UniProt Q8TEV9 1-937)
# T1 sequence: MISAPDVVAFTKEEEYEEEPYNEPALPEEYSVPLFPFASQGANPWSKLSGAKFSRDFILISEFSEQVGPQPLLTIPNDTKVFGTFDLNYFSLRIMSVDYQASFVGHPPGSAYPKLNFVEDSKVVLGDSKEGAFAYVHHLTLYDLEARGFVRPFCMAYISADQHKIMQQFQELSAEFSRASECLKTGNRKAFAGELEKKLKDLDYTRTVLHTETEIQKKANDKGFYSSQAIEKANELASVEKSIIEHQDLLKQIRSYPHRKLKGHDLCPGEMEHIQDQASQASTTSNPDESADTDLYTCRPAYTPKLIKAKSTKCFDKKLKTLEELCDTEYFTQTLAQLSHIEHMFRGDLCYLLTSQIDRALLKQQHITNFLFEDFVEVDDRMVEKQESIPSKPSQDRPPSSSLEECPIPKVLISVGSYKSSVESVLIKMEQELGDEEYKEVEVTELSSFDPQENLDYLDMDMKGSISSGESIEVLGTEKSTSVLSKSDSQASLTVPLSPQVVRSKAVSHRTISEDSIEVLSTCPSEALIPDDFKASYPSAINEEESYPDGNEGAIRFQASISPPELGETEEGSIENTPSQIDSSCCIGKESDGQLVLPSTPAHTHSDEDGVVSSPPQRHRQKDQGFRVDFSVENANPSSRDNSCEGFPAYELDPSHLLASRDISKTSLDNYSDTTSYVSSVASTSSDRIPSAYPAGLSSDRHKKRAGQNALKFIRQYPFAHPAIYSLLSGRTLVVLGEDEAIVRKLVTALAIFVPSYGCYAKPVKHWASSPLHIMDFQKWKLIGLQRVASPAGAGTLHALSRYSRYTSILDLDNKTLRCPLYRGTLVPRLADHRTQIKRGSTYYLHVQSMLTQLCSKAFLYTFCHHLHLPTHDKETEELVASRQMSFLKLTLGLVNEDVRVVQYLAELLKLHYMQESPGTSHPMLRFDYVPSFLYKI
# Assay: cryo-EM structure
row,Binder,binding result
1,B1,binds
2,B2,binds
